Measurements published in paper PMC5095173, “Disulfide-activated protein kinase G Iα regulates cardiac diastolic relaxation and fine-tunes the Frank–Starling response” (Nature Communications, 2016).

What was measured:
[1] = test system: PKGIα (analogue-sensitive C42S/M438G), cGMP-activated; assay: Chemical genetic phosphoproteomic screen, cGMP-activated PKGIα C42S/M438G versus unactivated control; format: biochemical, human PKGIα; substrates in rat heart homogenate; settings: PKGIα C42S/M438G + 100 μM cGMP vs basal; 1 h, 30 °C, pH 7.5, rat heart homogenate; label-free LC–MS/MS; n=4; * P<0.05 Dunnett: all values except phospholamban S16
Excerpt: (§1) We employed a chemical genetic method[18] to identify direct substrates of cGMP-activated PKGIα and disulfide bond-activated PKGIα in heart tissue. This method involves mutation of the ATP binding-site of the kinase of interest so that it can accept a ‘bulky' N6-alkylated ATP analogue for example, N6^−phenylethyl ATP. An oxygen atom on the γ phosphate is also replaced with a sulfur atom—giving an N6-alkylated ATPγS analogue—so that the mutant kinase catalyses the transfer of a thiophosphate group (–PO3S^3−) to its substrates instead of a phosphate. The thiophosphate group is nucleophilic, providing a basis for substrates of the analogue-sensitive kinase to be purified by a ‘covalent capture' protocol. LC–MS/MS allows identification of the substrate and localization of the phosphorylation site. Thiophosphorylated proteins can also be detected with a thiophosphate ester-specific antibody. Analogue-sensitive mutants of PKGIα and PKGIα C42S (which cannot form the activating intermolecular disulfide bond) were generated by mutating Met438 in the ATP-binding domain to Gly. This mutation was chosen based on a previous study where an analogue-sensitive mutant of the catalytic subunit of PKA—which shares sequence homology with PKGIα—was engineered. Detailed protocols are given below.
(§2) A pCDNA3 expression vector encoding human FLAG-tagged PKGIα (ref. [41]) underwent site-directed mutagenesis to generate constructs for untagged WT, C42S, M438G and C42S/M438G PKGIα. Mutations were introduced using the QuikChange II Site-Directed Mutagenesis Kit (Agilent) according to the manufacturer's instructions. Expression and purification of the PKGIα mutants was performed according to a published method[42] as follows: suspension FreeStyle 293-F cells (ThermoFisher Scientific) were transfected with the appropriate PKGIα construct using the stable cationic polymer polyethyleneimine (PEI) as a transfection reagent. After ∼72 h cells were harvested by centrifugation (400g; room temperature; 15 min), re-suspended in ice cold lysis buffer (25 mM sodium phosphate buffer pH 6.8; 10 mM ethylenediaminetetraacetic acid (EDTA); 100 mM NaCl; 10 mM benzamidine hydrochloride; and 10 mM dithiothreitol (DTT)) and frozen in liquid N2. Cells were lysed by three freeze (liquid N2)-thaw (37 °C) cycles and the lysate was clarified by centrifugation at 140,000g and 4 °C for 30 min. The soluble protein fraction was loaded onto a pre-equilibrated 8-(2-aminoethylamino)adenosine-3′, 5′-cyclic monophosphate column (8-AEA-cAMP agarose; BioLog, Germany) followed by washing with 20 column volumes of lysis buffer. The column was further washed with lysis buffer +3 M NaCl (5 column volumes) and PKGIα was then eluted with lysis buffer +150 mM NaCl and 500 μM cAMP. Removal of cAMP and buffer exchange was achieved by extensive dialysis against 25 mM sodium phosphate buffer pH 6.8, 2 mM EDTA and 100 mM NaCl. For ITC analysis, WT PKGIα was incubated with 10 mM lipoic acid for 2 h on ice to obtain ∼100% disulfide dimer (confirmed by SDS-PAGE). Oxidized WT or C42S PKGIα was further purified by size exclusion chromatography using a HiLoad 16/600 Superdex 200 pg column (GE Healthcare) with 50 mM sodium phosphate buffer pH 7.4 and 100 mM NaCl. Proteins were concentrated using Amicon Ultra centrifugal filter devices (Merck Millipore). DTT was absent in storage buffers so that the activating disulfide bond would not be reduced and so that the PKGIα M438G mutant would be oxidized to disulfide dimer in the presence of air (confirmed by SDS-PAGE). Protein concentration was determined by Pierce BCA assay (ThermoFisher) and enzyme activity was confirmed using the Omnia kinase assay kit (ThermoFisher).
(§3) Male Wistar rats (9–10 weeks; body weight 300–330 g) were euthanized by intraperitoneal injection of sodium pentobarbitone (200 mg kg^−1) with heparin (500 USP units). […]

[2] = test system: PKGIα (analogue-sensitive M438G), disulfide-activated; assay: Chemical genetic phosphoproteomic screen, disulfide-activated PKGIα M438G versus unactivated control; format: biochemical, human PKGIα; substrates in rat heart homogenate; settings: disulfide-activated PKGIα M438G vs basal; 1 h, 30 °C, pH 7.5, rat heart homogenate; label-free LC–MS/MS; n=4; * P<0.05 Dunnett: only phospholamban S16
Excerpt: as §1, §2, §3

Molecule | Log2 fold change in phosphorylation, cGMP versus control [1] | Log2 fold change in phosphorylation, Disulfide versus control [2]
Histone H1.5: PKGIα substrate, phospho site T35 (protein, UniProt D3ZBN0 2-222, looked up, phosphorylated at T35) Histone H1.5: SETAPAETTAPAPVEKSPAKKKTKKAGAAKRKATGPPVSELITKAVSASKERGGVSLPALKKALAAGGYDVEKNNSRIKLGLKSLVSKGTLVQTKGTGASGSFKLNKKVASGEAKPKAKKTGAAKAKKPTGATPKKPKKTAGAKKTVKKTPKKAKKPAAAGVKKVTKSPKKAKAAAKPKKATKSPARPKAVKSKASKPKVTKPKAAKPKAAKVKKAVSKKK | 3.90* | 1.43
Leucine-rich PPR motif-containing protein, mitochondrial: PKGIα substrate, phospho site S656 (protein, UniProt Q5SGE0 78-1392, looked up, phosphorylated at S656) Leucine-rich PPR …: SGSQFDWALMRLDNSVRRTGRITKGLLQKVFESTCRSGSPGSNQALLLLRSCGSLLPELSLAERTEFAHKIWDKLQQLGTVYDVSHYNALLKVYLQNEYRFSPTDFLAKMEGANIQPNRVTYQRLIAAYCSVGDIEGASKILGFMKTRDLPITEAVFSALVTGHARAGDMESAENILTVMKQAGIEPGPDTYLALLNAHAEKGDIDHVKQILEKVEKSDHYFMDRDFLQIIVSFSKAGYPQYVSEILEKITYERRSIPDAMNLILLLVTEKLEDTAFQVLLALPLARDETSSSFGSFFLRHCVTMDTPAEKLIDYCKRLRDAKVHSSSLQFTLHCALQANKTALAKAVMEALRDEGFPIRTHYFWPLLVGHQKTKNVQGIIDILKIMKEMGVDPDQETYINYVFPCFGSVQSARAALQENKCLPKSTTFAQAEVRNEAINGNLQNILSFLESNALPFSFNSLRGSLILGFRRSMNIDLWSKITELLYKDDRYCQKPPGPTEAVGYFLYNLIDSMSDSEVQAKEERLRQYFHQLREMNVKVSENIYKGICNLLDNYHVPELIKDVKVLVDREKIDSRKTSQFTSSDLESTLEKLKAEGHPVGDPLKQLILLLCSEENMQKALEVKAKYESDMVIGGYAALINLCCRHDNAEDALNLKQEFDRLDPSAVLDTAKYVALVKVLGKHGRVQDAINILKEMKEKDVVIKDAAVLSFFHILNGAALRGEIETVKQLHEAIVTLGLAKPSSNISFPLVTVHLEKDDLPAALEASIACHEKYKVLPRIHDVLCKLIEKGETDLIQKAMDFVSQEQGEMSMLYDLFFAFLQTGNYKEAKKIIETPGIRARPTRLQWFCDRCIANNQVETLEKLVELTEKLFECDRDQMYYNLLKLYKISGDWQRADAVWNKMQEENLIPRERTLRLLAGILKTSNQEVPFDVPELWFGDDRSSLSSSSPSAGDTVTEKMLLSDCRLKKSKDAYNIFLKAEKQDVVFSSEAYSTLVGLLLSKDDFTRAMHVKDFAETHIKGFTLNGAASSLLIIAQVRRDYLKVALETLKAALDLEQVPSELAVTRLIQALALQGDVKSIETIQKMVKGLDAIELSRMVFINNIALAQMKNNEIDAAIENIEHMLASENQTVEHQYFGLSYLFRKVIEEQMEPALEKLSIMSERLANQFALYKPVTDLFLQLVDSGKVDEARALLERCGAIAEQTSILSVFCLRTSQKPKKAPVLKTLLELIPELRENDRVYSCSMKSYVADKDVASAKALYEHLTAKNMKLDDLFLKRYASLLKDVGEPVPFTEPPESFGFYIKQLKEARENPS | 4.57* | 0.77
Microtubule-associated protein 4: PKGIα substrate, phospho site T899 (protein, UniProt Q5M7W5 2-1057, looked up, phosphorylated at T899) Microtubule-associated …: ADLSLVDALTEPPPEIEGEIKRDFMAALEAEPYDDIVGETVEKTEFIPLLDGDEKSGNSESKRKPCVDTSQVEDIPSSKPTLLANGDHGVEGNNTTGSPTDFLVENVDYEDYQNSQSWPEDASFCFQPQQVLDTNQADPFNVHHDDGLADLLFVSSGPTNASAFIEENNPLEDSYGVLPCDSFAPTAVVSQEWSVGAPDSPHSEPCVSPEVTIETAQPATELSKAVDLESVKEQLPAKALEMMAGQTTDAVPSKESEGSPDTDAAPGPDTDVTLTKDIEESSSPDVISANVTQPFTESDMFLTQEMELLIGTEAAQVKDTMSSVEPDISSAKNTAPPTEEETVPGKDMTFPKEAETALPIEMDLAPPEDVALPKETELELAPAAGTAPLSETEVALAKDEEPSTGIPAAQEMLLSSETEVVLPSDSIMTLTKEVTVPLEAAGPLVSDMTAILETEMTLGGGTATPTETKLGKVKDMAPLPESEVALGKDVVTLPETKVTEFNNVTPLSEEEVASIKDVSPSPETETAKNADLHSGTELTLDNSMTPPSDPALPLETKVATVQIKDKETVQTQEELSEDSQLESVQLEGQSAVPPCTISPEPVKAADQKSTLPVDEGSPLEKLEQKETSGSQPPELCSGVSRQEEGKAAVGLTGNDIATPPNKELPPSPEKKAKPLATTQPAKTSTSKAKIQPTSLPKQPAPTTSGGLNKKPMSLASGSVPAAPHKRPAAATATARPSTLPARDLKPKPITETKVAEKRTSPSKPSSAPALRPGPKTTPTISKATSPSTLVSTGSSSRSPSTTLPKRPTTTKTEGKPADVKRMTAKSATADLSRSKTTSASSVKRNTTPTGATPPAGMASTRVKPMSAPCRSSVALSVDKKPTSTKPSSSAPRVSRLATTVSAPDLKSVRSKVGSTENMKHQPGGGRVQIQNKKVDISKVSSKCGSKANIKHKPGGGDVKIESQKLNFKEKAQAKVGSLDNVGHLPAGGTVKTEGGGSEAPPCPGPPAGEEPAIPEAAPDAGAPTSASGLSGHTTLSGGGDQREPQTLDSQIQETSI | 3.69* | 1.73
Matrin-3: PKGIα substrate, phospho site T150 (protein, UniProt P43244 2-845, looked up, phosphorylated at T150) Matrin-3: SKSFQQSSLGRDSQGHGRDLSAAGIGLLAAATQSLSMPASLGRMNQGTARLASLMNLGMSSSLNQQGAHSALSSASTSSHNLQSIFNIGSRGPLPLSSQHRGDTDQASNILASFGLSARDLDELSRYPEDKITPENLPQILLQLKRRRTEEGPTLSYGRDGRSATREPPYRVPRDDWEEKRHFRRDSFDDRGPSLNPVLDYDHGSRSQESGYYDRMDYEDDRLRDGERCRDDSFFGETSHNYHKFDSEYERMGRGPGPLQERSLFEKKRGAPPSSNIEDFHGLLPKGYPHLCSICDLPVHSNKEWSQHINGASHSRRCQLLLEIYPEWNPDNDTGHTMGDPFMLQQSTNPAPGILGPPPPSFHLGGPAVGPRGNLGAGNGNLQGPRHMQKGRVETSRVVHIMDFQRGKNLRYQLLQLVEPFGVISNHLILNKINEAFIEMATTEDAQAAVDYYTTTPALVFGKPVRVHLSQKYKRIKKPEGKPDEKFDQKQELGRVIHLSNLPHSGYSDSAVLKLAEPYGKIKNYILMRMKSQAFIEMETREDAMAMVDHCLKKALWFQGRCVKVDLSEKYKKLVLRIPNRGIDLLKKDKSRKRSYSPDGKESPSDKKSKTDGAQKTENPAEGKEQEEKSGEDGEKDTKDDQTEQEPSMLLESEDELLVDEEEAAALIESGSSVGDETDLANLGDVSSDGKKEPSDKAVKKDASATSKKKLKKVDKIEELDQENEAALENGIKNEENTEPGAESAENADDPNKDASDNSDGQNDENKEDYTIPDEYRIGPYQPNVPGGIDYVIPKTGFYCKLCSLFYTNEEVAKNTHCSSLPHYQKLKKFLNKLAEERRQKKES | 3.58* | 1.38
